The text below walks through data of article PMC10681800, “Structural and functional investigation of GajB protein in Gabija anti-phage defense” (Nucleic Acids Research, 2023).

By stoichiometry N is commonly meant the number of molecules, sites or subunits per partner or assembly. The Kd is a measure of binding affinity in units of concentration. The low end stands for a tighter complex, the high end for a looser complex.

Several values for one entry are separate records, joined by “and”; a condition that tells them apart may be missing. Identical values can stand only once.

First the molecules themselves.
T1: UvrD (Escherichia coli DH5alpha, UniProt P03018 1-720)
T1 sequence: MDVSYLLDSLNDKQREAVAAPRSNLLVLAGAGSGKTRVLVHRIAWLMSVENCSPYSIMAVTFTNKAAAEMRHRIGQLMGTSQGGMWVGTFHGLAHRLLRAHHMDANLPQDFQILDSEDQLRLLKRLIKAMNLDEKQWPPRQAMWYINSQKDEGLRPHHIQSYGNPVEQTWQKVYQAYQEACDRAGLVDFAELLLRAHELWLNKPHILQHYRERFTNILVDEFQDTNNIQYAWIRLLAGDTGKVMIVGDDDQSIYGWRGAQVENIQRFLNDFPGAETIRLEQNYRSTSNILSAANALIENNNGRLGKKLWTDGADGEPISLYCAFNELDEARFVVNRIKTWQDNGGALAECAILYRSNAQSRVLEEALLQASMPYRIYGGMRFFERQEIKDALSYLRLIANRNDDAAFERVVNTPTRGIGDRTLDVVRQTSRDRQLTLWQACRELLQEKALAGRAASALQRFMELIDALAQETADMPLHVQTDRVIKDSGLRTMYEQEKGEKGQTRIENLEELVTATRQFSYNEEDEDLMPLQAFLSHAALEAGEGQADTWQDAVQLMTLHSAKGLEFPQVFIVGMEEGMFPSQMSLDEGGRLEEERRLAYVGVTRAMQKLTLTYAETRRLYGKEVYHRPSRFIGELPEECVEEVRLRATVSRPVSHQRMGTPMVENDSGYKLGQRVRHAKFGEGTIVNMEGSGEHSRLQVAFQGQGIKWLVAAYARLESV

T2: GajA;GajB (Bacillus cereus VD045;Bacillus cereus …, UniProt J8H9C1;J8HQ06 1-578;1-494, |)
T2 sequence 1: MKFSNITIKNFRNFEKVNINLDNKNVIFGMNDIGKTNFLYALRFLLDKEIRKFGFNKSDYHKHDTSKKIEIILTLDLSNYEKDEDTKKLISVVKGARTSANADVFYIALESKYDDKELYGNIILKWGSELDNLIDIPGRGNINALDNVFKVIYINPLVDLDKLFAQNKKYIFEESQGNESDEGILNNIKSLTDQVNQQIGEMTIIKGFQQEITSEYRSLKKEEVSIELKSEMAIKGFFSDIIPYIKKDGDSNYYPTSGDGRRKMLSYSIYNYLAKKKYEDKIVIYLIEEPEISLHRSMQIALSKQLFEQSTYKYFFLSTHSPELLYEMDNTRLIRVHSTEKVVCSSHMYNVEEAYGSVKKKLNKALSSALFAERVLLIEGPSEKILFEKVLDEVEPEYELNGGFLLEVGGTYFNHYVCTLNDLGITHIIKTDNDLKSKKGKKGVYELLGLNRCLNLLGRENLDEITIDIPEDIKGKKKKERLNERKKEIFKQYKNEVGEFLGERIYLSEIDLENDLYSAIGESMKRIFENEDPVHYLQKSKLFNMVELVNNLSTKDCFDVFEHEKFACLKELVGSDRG
T2 sequence 2: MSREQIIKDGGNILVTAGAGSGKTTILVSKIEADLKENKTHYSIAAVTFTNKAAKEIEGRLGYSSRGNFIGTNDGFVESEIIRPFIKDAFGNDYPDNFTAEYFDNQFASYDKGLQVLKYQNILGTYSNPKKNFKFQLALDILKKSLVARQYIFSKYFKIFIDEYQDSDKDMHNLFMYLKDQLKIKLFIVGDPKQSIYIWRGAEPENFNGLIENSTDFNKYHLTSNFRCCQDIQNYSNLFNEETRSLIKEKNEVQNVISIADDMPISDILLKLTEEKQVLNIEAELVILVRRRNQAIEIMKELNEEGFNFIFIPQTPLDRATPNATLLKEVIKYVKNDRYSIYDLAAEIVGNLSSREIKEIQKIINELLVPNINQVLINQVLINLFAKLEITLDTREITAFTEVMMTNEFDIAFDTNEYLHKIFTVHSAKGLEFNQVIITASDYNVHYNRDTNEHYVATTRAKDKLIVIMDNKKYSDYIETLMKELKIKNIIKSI

T3: GajB (Bacillus cereus VD045, UniProt J8HQ06 1-494)
T3 sequence: T2 sequence 2

T4: GajB of the Gabija anti-phage defense system of Bacillus cereus VD045, purified on its own, (His)6-MBP tag … (Bacillus cereus VD045, UniProt J8HQ06 1-494)
T4 chain: T2 sequence 2

B1: 3'-tailed dsDNA (dsDNA)
DNA 1: TCGGTACGACCTGCGAGCACTGCTT
DNA 2: AAGCAGTGCTCGCAGGTCGTACCGATTTTTTTTTTTTTTT
B2: GajB of the Gabija anti-phage defense system of Bacillus cereus VD045, purified on its own, (His)6-MBP tag cleaved by TEV protease (natural protein)
chain: T2 sequence 2
notes: GajB, Bacillus cereus VD045, synthetic gene in pET28a with (His)6-MBP and a TEV site; 57.1 kDa as printed; the subdomains of the crystal structure span residues 1-494; the shorter of the two GajB forms that the discussion tells of (the long form has five more N-terminal residues); Monomer by SEC-MALS and analytical SEC; also called individually purified GajB; separately purified GajB; source: E. …
B3: GajA of the Gabija anti-phage defense system of Bacillus cereus VD045, with a C-terminal (His)6 tag, purified on its own (enzyme, UniProt J8H9C1 1-578, looked up)
chain: T2 sequence 1
notes: GajA, Bacillus cereus VD045, synthetic gene in pET21a; 67.0 kDa as printed; Tetramer by SEC-MALS and analytical SEC; also called individually purified GajA; separately purified GajA; source: E. coli BL21(DE3), purified (HisTrap HP, SEC Superdex 200)

Data set [1] has as its target T1, UvrD. Nature of the data set: EMSA; 10 uM protein, 5 uM DNA, 5 mM Mg2+, no ATP; EMSA: 5 mM MgCl2, 1 mM DTT, 0.75 uM BSA, 20 mM Tris-HCl pH 7.5, 25 C, 90 min; 2% agarose gel, ethidium bromide. The note with it: protein: recombinant; tags: N-terminal His6-MBP removed with TEV protease (as for GajB); label: fluorescein on the 25-mer in helicase assay; 25 bp duplex, 3' overhang 15 nt (T15) on strand 2. A general note: A gel shift assay detects complexes by their altered migration in electrophoresis.

The target of data set [2] is T2, GajA;GajB. Described as above. The note with it: protein: recombinant;recombinant; chain copies: 4;4; label: fluorescein on the 25-mer in helicase assay; 25 bp duplex, 3' overhang 15 nt (T15) on strand 2.
For data set [3], the target named is T3, GajB. Described as above. Conditions: protein: recombinant; tags: N-terminal His6-MBP removed with TEV protease; label: fluorescein on the 25-mer in helicase assay; 25 bp duplex, 3' overhang 15 nt (T15) on strand 2.
Data set [4] deals with B3. Nature of the data set: SEC; analytical SEC, Superdex 200 10/300 GL; 300 mM NaCl, 2 mM DTT, 5% glycerol, 20 mM HEPES pH 7.5; samples 20 μM each, incubated at 4°C for 1 h before loading; also GajA pre-incubated with increasing amounts of GajB. The note with it: both partners purified. On the technique in general: Size exclusion chromatography separates by hydrodynamic size, large species first.

Data set [5] concerns the target B3. Description: ITC; 4°C; 20 μM GajB in the cell titrated with 20 injections of 2 μl of 200 μM GajA; 300 mM NaCl, 1 mM TCEP, 10% glycerol, 20 mM HEPES pH 7.5; triplicate. The note with it: both partners purified.
For data set [6], the target named is B3. Nature of the data set: SEC-MALS; GajA pre-incubated with an excess of GajB (molar ratio 4:8); Superdex 200 Increase 10/300 GL, 300 mM NaCl, 2 mM DTT, 5% glycerol, 20 mM HEPES pH 7.5, 25 °C. The note with it: both partners purified.
Data set [7] deals with the molecule itself. Nature of the data set: SEC-MALS + SEC; each protein alone; Superdex 200 Increase 10/300 GL with miniDAWN/Optilab, 300 mM NaCl, 2 mM DTT, 5% glycerol, 20 mM HEPES pH 7.5, 20 μM, 25 °C; analytical SEC in the same buffer.
The target in data set [8] is T4, GajB of the Gabija anti-phage defense …. Nature of the data set: ITC. In general terms: In ITC the heat of successive injections is recorded.
Data set [9] deals with B2. Nature of the data set: ITC; 4°C; 20 μM GajB in the cell titrated with 20 injections of 2 μl of 200 μM GajA; 300 mM NaCl, 1 mM TCEP, 10% glycerol, 20 mM HEPES pH 7.5; triplicate. Conditions: both partners purified.

With B1, the binding result in data set [1] was “binds”; in [2], “no binding”; in data set [3], “no binding”.

Consider B2, for which the “stoichiometry N” value in data set [4] is 4 GajB monomers per GajA tetramer; in [6] it was 4 GajB monomers per GajA tetramer (4:4). The same molecule yielded a Kd in data set [5] of around 46.4 nM.

B3: the “stoichiometry N” value is 4 in data set [7] and around 1 in data set [9]. In addition, the Kd in data set [8] was 54.3 nM and 36.9 nM.
